Biological target: DCR-1;DRH-1;RDE-4 (Caenorhabditis elegans;Caenorhabditis …, UniProt P34529;G5EDI8;G5EBF5 1-1910;1-1037;1-385, ||)
Assay: cryo-EM structure, 3.0 A; 5 mM ATP, 20 C; ADP modelled in DCR-1, DRH-1 and DRH-1*; Mg2+; cleavage-competent state, poised for second cleavage; RDE-4 dsRBM2 density not seen; Cryo-EM; sample buffer not given in material. Lysis/resuspension buffer 25 mM HEPES pH 7.5, 10 mM KOAc, 2 mM Mg(OAc)2, 100 mM KCl, 1 mM TCEP, 5% glycerol; RNA annealed in 50 mM Tris pH 8.0, 20 mM KCl; ATP sample incubated at 20 C
Details: protein: recombinant;recombinant;recombinant; (StrepTrap purification); copies: 1;1;1; 2 nt 3' overhangs at both termini

DCR-1;DRH-1;RDE-4, sequence (P34529 whole entry, chain 1 of 3): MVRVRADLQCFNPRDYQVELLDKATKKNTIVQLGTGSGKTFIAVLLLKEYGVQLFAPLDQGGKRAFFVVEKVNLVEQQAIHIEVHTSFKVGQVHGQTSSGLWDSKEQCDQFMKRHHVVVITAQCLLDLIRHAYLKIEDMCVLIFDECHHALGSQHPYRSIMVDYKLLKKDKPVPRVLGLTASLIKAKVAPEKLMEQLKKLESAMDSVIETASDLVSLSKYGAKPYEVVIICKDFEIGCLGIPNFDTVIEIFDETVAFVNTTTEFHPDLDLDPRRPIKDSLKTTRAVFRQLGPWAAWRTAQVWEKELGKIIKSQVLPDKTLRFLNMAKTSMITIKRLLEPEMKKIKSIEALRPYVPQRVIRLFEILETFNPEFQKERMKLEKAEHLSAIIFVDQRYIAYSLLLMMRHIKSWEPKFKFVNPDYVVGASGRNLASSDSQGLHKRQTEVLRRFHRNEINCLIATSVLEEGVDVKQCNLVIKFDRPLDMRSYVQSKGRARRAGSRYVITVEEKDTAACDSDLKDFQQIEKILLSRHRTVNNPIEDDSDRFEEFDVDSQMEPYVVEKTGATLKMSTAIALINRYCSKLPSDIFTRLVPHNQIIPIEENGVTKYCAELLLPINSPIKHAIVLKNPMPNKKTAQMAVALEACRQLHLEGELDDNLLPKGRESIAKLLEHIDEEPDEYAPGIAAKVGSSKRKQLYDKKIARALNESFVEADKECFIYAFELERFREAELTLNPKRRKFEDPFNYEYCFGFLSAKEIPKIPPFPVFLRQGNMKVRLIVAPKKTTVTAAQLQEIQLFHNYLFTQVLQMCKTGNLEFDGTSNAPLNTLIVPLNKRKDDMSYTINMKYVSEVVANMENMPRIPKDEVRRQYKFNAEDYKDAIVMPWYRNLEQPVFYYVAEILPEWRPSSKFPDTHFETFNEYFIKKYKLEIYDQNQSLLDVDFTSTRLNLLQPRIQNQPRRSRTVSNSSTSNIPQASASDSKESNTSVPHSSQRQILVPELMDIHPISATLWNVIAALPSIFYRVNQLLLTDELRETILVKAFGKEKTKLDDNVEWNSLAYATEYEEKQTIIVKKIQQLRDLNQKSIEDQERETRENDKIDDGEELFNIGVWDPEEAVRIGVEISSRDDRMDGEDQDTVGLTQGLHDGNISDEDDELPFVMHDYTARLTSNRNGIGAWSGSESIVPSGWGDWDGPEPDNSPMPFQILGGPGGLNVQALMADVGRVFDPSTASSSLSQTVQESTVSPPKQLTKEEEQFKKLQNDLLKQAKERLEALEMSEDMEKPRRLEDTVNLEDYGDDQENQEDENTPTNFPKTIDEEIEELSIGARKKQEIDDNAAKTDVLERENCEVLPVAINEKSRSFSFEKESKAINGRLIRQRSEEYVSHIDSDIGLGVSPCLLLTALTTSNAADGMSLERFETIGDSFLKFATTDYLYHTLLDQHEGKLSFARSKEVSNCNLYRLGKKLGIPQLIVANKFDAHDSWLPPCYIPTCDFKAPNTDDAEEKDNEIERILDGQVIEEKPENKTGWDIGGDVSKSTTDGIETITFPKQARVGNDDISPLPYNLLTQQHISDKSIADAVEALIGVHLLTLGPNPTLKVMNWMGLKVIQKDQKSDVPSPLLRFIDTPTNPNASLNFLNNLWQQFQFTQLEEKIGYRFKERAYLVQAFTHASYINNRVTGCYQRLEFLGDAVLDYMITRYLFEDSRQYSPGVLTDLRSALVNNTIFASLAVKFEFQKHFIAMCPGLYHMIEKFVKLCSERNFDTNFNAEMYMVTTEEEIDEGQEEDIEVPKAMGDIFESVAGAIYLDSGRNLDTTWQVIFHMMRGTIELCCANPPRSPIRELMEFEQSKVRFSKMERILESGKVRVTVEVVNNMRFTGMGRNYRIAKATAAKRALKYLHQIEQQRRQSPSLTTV
DCR-1;DRH-1;RDE-4, sequence (chain, as listed by the source ||, chain 2 of 3): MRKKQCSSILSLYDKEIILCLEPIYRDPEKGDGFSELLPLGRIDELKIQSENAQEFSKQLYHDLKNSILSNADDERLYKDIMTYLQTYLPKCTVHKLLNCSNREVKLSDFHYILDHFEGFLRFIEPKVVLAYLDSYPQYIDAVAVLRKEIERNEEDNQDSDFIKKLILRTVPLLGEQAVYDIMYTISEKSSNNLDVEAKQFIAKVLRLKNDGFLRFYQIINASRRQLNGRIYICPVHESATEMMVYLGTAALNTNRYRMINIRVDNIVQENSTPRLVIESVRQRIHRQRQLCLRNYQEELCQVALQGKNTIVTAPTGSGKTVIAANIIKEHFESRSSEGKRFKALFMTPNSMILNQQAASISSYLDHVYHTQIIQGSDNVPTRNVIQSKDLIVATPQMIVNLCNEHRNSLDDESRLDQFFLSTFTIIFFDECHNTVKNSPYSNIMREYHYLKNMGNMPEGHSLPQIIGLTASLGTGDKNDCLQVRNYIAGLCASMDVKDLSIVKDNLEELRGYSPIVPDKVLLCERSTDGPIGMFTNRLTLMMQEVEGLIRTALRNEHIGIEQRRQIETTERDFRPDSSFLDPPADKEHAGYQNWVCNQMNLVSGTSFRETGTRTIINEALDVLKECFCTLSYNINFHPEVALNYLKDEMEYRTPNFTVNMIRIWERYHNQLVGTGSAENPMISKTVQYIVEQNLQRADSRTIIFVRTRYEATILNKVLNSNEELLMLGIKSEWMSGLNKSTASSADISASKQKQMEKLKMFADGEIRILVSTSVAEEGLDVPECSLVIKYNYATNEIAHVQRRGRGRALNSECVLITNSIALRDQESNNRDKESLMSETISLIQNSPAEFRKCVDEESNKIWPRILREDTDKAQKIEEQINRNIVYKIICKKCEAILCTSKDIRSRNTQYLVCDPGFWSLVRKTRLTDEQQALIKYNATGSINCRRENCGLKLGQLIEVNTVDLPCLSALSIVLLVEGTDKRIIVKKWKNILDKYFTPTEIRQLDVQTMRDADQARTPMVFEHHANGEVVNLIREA
DCR-1;DRH-1;RDE-4, sequence (chain, as listed by the source ||, chain 3 of 3): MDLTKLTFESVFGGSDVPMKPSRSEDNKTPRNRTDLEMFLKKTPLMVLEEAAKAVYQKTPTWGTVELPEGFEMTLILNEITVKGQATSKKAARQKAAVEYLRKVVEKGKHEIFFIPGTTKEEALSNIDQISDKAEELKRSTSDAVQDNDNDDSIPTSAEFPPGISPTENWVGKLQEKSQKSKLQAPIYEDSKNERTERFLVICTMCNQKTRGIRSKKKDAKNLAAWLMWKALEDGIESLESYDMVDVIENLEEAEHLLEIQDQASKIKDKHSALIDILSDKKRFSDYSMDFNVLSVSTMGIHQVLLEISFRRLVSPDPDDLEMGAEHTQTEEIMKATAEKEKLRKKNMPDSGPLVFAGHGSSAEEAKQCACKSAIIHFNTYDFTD

B1: 3'ovr 106-dsRNA (dsRNA)
RNA 1: GGCAAUGAAAGACGGUGAGCUGGUGAUAUGGGAUAGUGUUCACCCUUGUUACACCGUUUUCCAUGAGCAAACUGAAACGUUUUCAUCGCUCUGGAGUGAAUACCAA
RNA 2: GGUAUUCACUCCAGAGCGAUGAAAACGUUUCAGUUUGCUCAUGGAAAACGGUGUAACAAGGGUGAACACUAUCCCAUAUCACCAGCUCACCGUCUUUCAUUGCCAA
B1: binds.
